Values of other authors as cited in publication PMC3113340.
pKd: −log10 of the molar value.

Target: IL-1ra (Homo sapiens) (UniProt P18510)
Sequence of UniProt P18510 (P18510 26-177): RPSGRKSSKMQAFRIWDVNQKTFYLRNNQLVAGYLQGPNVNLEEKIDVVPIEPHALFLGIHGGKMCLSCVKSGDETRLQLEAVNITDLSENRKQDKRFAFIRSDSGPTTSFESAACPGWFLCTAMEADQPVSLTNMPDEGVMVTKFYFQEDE

soluble IL-1RI ECD (from UniProt P14778)
pKd: 10.85
